Earlier results on one substance are cited in article PMC8773166.

The target of the series is calmodulin (UniProt P0DP23).

“NCX1 XIP peptide XIP (from UniProt P32418)”: the Kd was 200 nM.
